Results published in patent US20160264674A1 (ADURO BIOTECH HOLDINGS EUROPE B V, published 2016).
Positions count from the first letter of the chain named. In names and notes the source's numbering stands. Like-named read-outs stand apart in the source and are kept apart here.

T1: FLAG-tagged human APRIL (human, UniProt O75888 105-250, limits assumed)
T1 construct: also called FLAG-tagged APRIL; FLAG-APRIL; not shown: FLAG tag
T1 sequence (looked up): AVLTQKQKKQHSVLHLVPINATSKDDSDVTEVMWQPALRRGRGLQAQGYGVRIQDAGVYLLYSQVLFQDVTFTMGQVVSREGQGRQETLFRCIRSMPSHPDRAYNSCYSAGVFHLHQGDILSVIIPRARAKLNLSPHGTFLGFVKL

B1: VH14_1.VL15 (antibody, human IgG4, V domains shown)
VH: QVQLVQSGAEVKKPGASVKVSCKASGYTFTSYVMHWVRQAPGQGLEWMGYINPYNDAPKYNEKFKGRVTMTSDTSASTAYMELSSLRSDDTAVYYCARGLGYALYYAMDYWGQGTTVTVSS
VL: DIVMTQSPSTLSASVGDRVTITCKASQNVGNNVAWYQQKPGKAPKLLISSASNRDSGVPSRFSGSGSGTEFTLTISSLQPDDFATYFCQQYNIYPFTFGQGTKLEIK
notes: VH14 with R72S; rest is human IgG4 (S241P, Kabat) and human kappa; also called 14_1.15; antibody 14_1.15
B2: VH11.VL15 (antibody, human IgG4 S228P, kappa, V domains shown)
VH: B1 VH with G44R, M70I, S72R, D89E
VL: DIVMTQSPSTLSASVGDRVTITCKASQNVGNNVAWYQQKPGKAPKLLISSASNRDSGVPSRFSGSGSGTEFTLTISSLQPDDFATYFCQQYNIYPFTFGQGTKLEIKR
notes: Humanized IgG4 (S241P, Kabat) with human kappa, from HEK293T; also called 11.15
B3: hAPRIL.01A (antibody, mouse IgG1, kappa, V domains shown)
VH: EVQLQQSGPELVKPGASVKMSCKASGYTFTSYVMHWVKQKPGQGLEWIGYINPYNDAPKYNEKFKGKATVTSDKSSGTAYMELSSLTSEDSAVYYCARGLGYALYYAMDYWGQGTSVTVSS
VL: DIVMTQSQKFKSTSVGDRVSVTCKASQNVGNNVAWYQQKAGQSPKALISSASNRDSGVPDRFTGSGSGTDFTLTISNVQSEDLADYFCQQYNIYPFTFGSGTKLEIKR
notes: Mouse antibody; also called mouse hAPRIL.01A antibody

How the values were obtained:
FLAG-tagged human APRIL [1] = molecular target: T1, FLAG-tagged human APRIL; assay: FLAG-APRIL ELISA after 10 min at 65 °C, antibody at 1 µg/ml
Description: (§1) The plasmids encoding the VH and VL constructs were mixed in a 1:3 ratio (4 μg in total) and transiently expressed by transfection into HEK293T human embryonic kidney cells (HEK293T/17, ATCC-CRL-11268), using Lipofectamine 2000 transfection reagent (Invitrogen) following the manufacturer's instructions. Cell supernatants were harvested after 5 days and tested for expression of antibody and binding to APRIL using an enzyme-linked immuno assay (ELISA). In these ELISAs, all incubation steps were followed by a wash step with PBST (PBS with 0.01% Tween 20). Maxisorb 96-wells plates (Nunc) were coated with 0.5 μg/ml anti-FLAG (Sigma) or anti-IgG4 (Jackson laboratories) and incubated overnight at 4° C. Subsequently the anti-FLAG coated 96-wells plates were incubated with FLAG-tagged human APRIL for 1 hour at room temperature. Next, supernatants and dilutions thereof were incubated for 1 hour, which was followed by an incubation of 1 hour with mouse anti-human IgG HRP-conjugate (Southern Biotechnology).
(§2) To determine the effect of humanization on the stability of the antibodies, humanized antibodies were exposed to a range of temperatures for 10 minutes. Purified antibodies were diluted to 3.16 μg/ml and dilutions thereof in PBS. Next, these solutions were exposed to 65° C. or 70° C. and residual binding after heat treatment of the antibodies was measured using the FLAG-tagged APRIL ELISA assay as described before (see Table 6).
(§3) In addition, the stability of the substituted humanized antibodies was improved as determined using thermostability studies as described in Example 3 (see Table 9).

FLAG-tagged human APRIL [2] = molecular target: T1, FLAG-tagged human APRIL; assay: FLAG-APRIL ELISA after 10 min at 70 °C, antibody at 1 µg/ml
FLAG-tagged human APRIL [3] = molecular target: T1, FLAG-tagged human APRIL; assay: FLAG-APRIL ELISA after 10 min at 65 °C, antibody at 3.16 µg/ml
Description: as §1, §2, §3

FLAG-tagged human APRIL [4] = molecular target: T1, FLAG-tagged human APRIL; assay: FLAG-APRIL ELISA after 10 min at 70 °C, antibody at 3.16 µg/ml
FLAG-tagged human APRIL [5] = molecular target: T1, FLAG-tagged human APRIL; assay: FLAG-APRIL ELISA after 10 min at 65 °C, antibody at 0.316 µg/ml
Description: as §1, §2, §3

FLAG-tagged human APRIL [6] = molecular target: T1, FLAG-tagged human APRIL; assay: FLAG-APRIL ELISA after 10 min at 70 °C, antibody at 0.316 µg/ml
FLAG-tagged human APRIL [7] = molecular target: T1, FLAG-tagged human APRIL; assay: ELISA: FLAG-tagged human APRIL captured on anti-FLAG plate, purified antibody titrated
FLAG-tagged human APRIL [8] = molecular target: T1, FLAG-tagged human APRIL; assay: as above; remark: listed apart in the source
FLAG-tagged human APRIL [9] = molecular target: T1, FLAG-tagged human APRIL; assay: competition ELISA: antibody premixed with FLAG-tagged APRIL, added to coated Fc-BCMA, anti-FLAG HRP
Description: Again, plasmids encoding the VH and VL constructs were mixed in a 1:3 ratio (32 μg) and transiently expressed by transfection into (8*10⁶) HEK293T human embryonic kidney cells (HEK293T), using Lipofectamine 2000 transfection reagent (Invitrogen) according to the manufacturer's instructions. Supernatants were harvested (10 ml) and antibodies were purified using MabSelect Sure Protein A resin according to the manufacturer's instructions (GE Healthcare). Buffer was exchanged for PBS using Zeba desalting columns (Thermo Scientific). The concentration of purified antibodies was determined based on OD280 (Nanodrop ND-1000). The binding of the purified antibodies to APRIL was established using the above described APRIL ELISA. The blocking capability of the humanized antibodies with BCMA and TACI receptors, was tested in a competition ELISA. In these ELISAs, all incubation steps were followed by a wash step with PBST (PBS with 0.01% Tween 20). Maxisorb 96-wells plates (Nunc) were coated with 0.5 μg/ml Fc-BCMA (R&D Systems) or Fc-TACI (R&D Systems) and incubated overnight at 4° C. […] Reactions were stopped with 100 μl 0.5 M H2504 and absorbances were measured at 450 and 620 nm. Calculated EC₅₀ and IC₅₀ representing the concentration at which 50% of the total binding signal or blocking is observed are represented in Table 5. […]

FLAG-tagged human APRIL [10] = molecular target: T1, FLAG-tagged human APRIL; assay: as above; remark: listed apart in the source
Description: (§4) A subset of humanized antibodies described above was selected for further analyses. Again, plasmids encoding the VH and VL constructs were mixed in a 1:3 ratio (32 μg) and transiently expressed by transfection into (8*10⁶) HEK293T human embryonic kidney cells (HEK293T), using Lipofectamine 2000 transfection reagent (Invitrogen) according to the manufacturer's instructions. Supernatants were harvested (10 ml) and antibodies were purified using MabSelect Sure Protein A resin according to the manufacturer's instructions (GE Healthcare). Buffer was exchanged for PBS using Zeba desalting columns (Thermo Scientific). The concentration of purified antibodies was determined based on OD280 (Nanodrop ND-1000). The binding of the purified antibodies to APRIL was established using the above described APRIL ELISA. The blocking capability of the humanized antibodies with BCMA and TACI receptors, was tested in a competition ELISA. In these ELISAs, all incubation steps were followed by a wash step with PBST (PBS with 0.01% Tween 20). Maxisorb 96-wells plates (Nunc) were coated with 0.5 μg/ml Fc-BCMA (R&D Systems) or Fc-TACI (R&D Systems) and incubated overnight at 4° C. Next, humanized antibodies and dilutions thereof were incubated, premixed with FLAG-tagged APRIL, for 1 hour, which was followed by an incubation of 1 hour with anti-FLAG HRP-conjugate (Sigma). Immunoreactivity was visualized with 100 μl TMB Stabilized Chromagen (Invitrogen). Reactions were stopped with 100 μl 0.5 M H2504 and absorbances were measured at 450 and 620 nm. Calculated EC₅₀ and IC₅₀ representing the concentration at which 50% of the total binding signal or blocking is observed are represented in Table 5.
The antibodies were tested for binding, blockade, and stability as described before.

FLAG-tagged human APRIL [11] = molecular target: T1, FLAG-tagged human APRIL; assay: FLAG-APRIL ELISA after 10 min at 65 °C, antibody at 1 µg/ml; remark: listed apart in the source
Description: as §1, §2

FLAG-tagged human APRIL [12] = molecular target: T1, FLAG-tagged human APRIL; assay: FLAG-APRIL ELISA after 10 min at 70 °C, antibody at 1 µg/ml; remark: listed apart in the source
Description: as §1, §2

FLAG-tagged human APRIL [13] = molecular target: T1, FLAG-tagged human APRIL; assay: FLAG-APRIL ELISA after 10 min at 65 °C, antibody at 3.16 µg/ml; remark: listed apart in the source
Description: as §1, §2

FLAG-tagged human APRIL [14] = molecular target: T1, FLAG-tagged human APRIL; assay: FLAG-APRIL ELISA after 10 min at 70 °C, antibody at 3.16 µg/ml; remark: listed apart in the source
Description: as §1, §2

FLAG-tagged human APRIL [15] = molecular target: T1, FLAG-tagged human APRIL; assay: FLAG-APRIL ELISA after 10 min at 65 °C, antibody at 0.316 µg/ml; remark: listed apart in the source
Description: as §1, §2

FLAG-tagged human APRIL [16] = molecular target: T1, FLAG-tagged human APRIL; assay: FLAG-APRIL ELISA after 10 min at 70 °C, antibody at 0.316 µg/ml; remark: listed apart in the source
Description: as §1, §2

FLAG-tagged human APRIL [17] = molecular target: T1, FLAG-tagged human APRIL; assay: ELISA: FLAG-tagged human APRIL captured on anti-FLAG plate, purified antibody titrated; remark: listed apart in the source
Description: as §1
as §4, with “(Sigma).” for “(Sigma). Immunoreactivity was visualized with 100 μl TMB Stabilized Chromagen (Invitrogen). Reactions were stopped with 100 μl 0.5 M H2504 and absorbances were measured at 450 and 620 nm. Calculated EC₅₀ and IC₅₀ representing the concentration at which 50% of the total binding signal or blocking is observed are represented in Table 5.”

FLAG-tagged human APRIL [18] = molecular target: T1, FLAG-tagged human APRIL; assay: competition ELISA: antibody premixed with FLAG-tagged APRIL, added to coated Fc-BCMA, anti-FLAG HRP; remark: listed apart in the source
Description: A subset of humanized antibodies described above was selected for further analyses. Again, plasmids encoding the VH and VL constructs were mixed in a 1:3 ratio (32 μg) and transiently expressed by transfection into (8*10⁶) HEK293T human embryonic kidney cells (HEK293T), using Lipofectamine 2000 transfection reagent (Invitrogen) according to the manufacturer's instructions. Supernatants were harvested (10 ml) and antibodies were purified using MabSelect Sure Protein A resin according to the manufacturer's instructions (GE Healthcare). Buffer was exchanged for PBS using Zeba desalting columns (Thermo Scientific). The concentration of purified antibodies was determined based on OD280 (Nanodrop ND-1000). The binding of the purified antibodies to APRIL was established using the above described APRIL ELISA. The blocking capability of the humanized antibodies with BCMA and TACI receptors, was tested in a competition ELISA. In these ELISAs, all incubation steps were followed by a wash step with PBST (PBS with 0.01% Tween 20). […] Reactions were stopped with 100 μl 0.5 M H2504 and absorbances were measured at 450 and 620 nm. Calculated EC₅₀ and IC₅₀ representing the concentration at which 50% of the total binding signal or blocking is observed are represented in Table 5.

| Binder | % residual binding after heat treatment (room temperature = 100%) (FLAG-tagged human APRIL [1]) [%] | % residual binding after heat treatment (room temperature = 100%) (FLAG-tagged human APRIL [2]) [%] | % residual binding after heat treatment (room temperature = 100%) (FLAG-tagged human APRIL [3]) [%] | % residual binding after heat treatment (room temperature = 100%) (FLAG-tagged human APRIL [4]) [%] | % residual binding after heat treatment (room temperature = 100%) (FLAG-tagged human APRIL [5]) [%] | % residual binding after heat treatment (room temperature = 100%) (FLAG-tagged human APRIL [6]) [%] | EC50 (FLAG-tagged human APRIL [7]) [nM] | EC50 (FLAG-tagged human APRIL [8]) [nM] | IC50 (FLAG-tagged human APRIL [9]) [nM] | IC50 (FLAG-tagged human APRIL [10]) [nM] | % residual binding after heat treatment (room temperature = 100%) (FLAG-tagged human APRIL [11]) [%] | % residual binding after heat treatment (room temperature = 100%) (FLAG-tagged human APRIL [12]) [%] | % residual binding after heat treatment (room temperature = 100%) (FLAG-tagged human APRIL [13]) [%] | % residual binding after heat treatment (room temperature = 100%) (FLAG-tagged human APRIL [14]) [%] | % residual binding after heat treatment (room temperature = 100%) (FLAG-tagged human APRIL [15]) [%] | % residual binding after heat treatment (room temperature = 100%) (FLAG-tagged human APRIL [16]) [%] | EC50 (FLAG-tagged human APRIL [17]) [nM] | IC50 (FLAG-tagged human APRIL [18]) [nM] |
| --- | --- | --- | --- | --- | --- | --- | --- | --- | --- | --- | --- | --- | --- | --- | --- | --- | --- | --- |
| B1 | 46.1 | 38.3 | 59.9 | 38 | 71 | 63 | 1.29 | 1.29 | 2.63 | 2.63 |  |  |  |  |  |  |  |  |
| B2 |  |  |  |  |  |  |  |  |  |  | 55.1 | 62.4 | 63.1 | 59.1 | 74.6 | 82 | 121 | 4.3 |
| B3 |  |  |  |  |  |  | 0.16 | 0.16 | 0.46 | 0.46 | 8.4 | 4.9 | 27.1 | 6.7 | 13.7 | 11.2 |  |  |
